From patent US20240216484A1 (URSAPHARM ARZNEIMITTEL, published 2024)

B1: HZI 2-05 (Anlec in TBS; lectin batch isolated from bromelain) (other)
chain: MSGLVKLGLWGGNEGTLQDIDGHPTRLTKIVIRSAHAIDALQFDYVEDGKTFAAGQWGGNGGKSDTIEFQPGEYLIAIKGTTGALGAVTNLVRSLTFISNMRTYGPFGLEHGTPFSVPVASGRIVAFYGRFGSLVDAFGIYLMPY
B2: HZI 2-10 (Anlec in TBS; lectin batch isolated from bromelain, protease inhibited with MMTS) (other)
chain: B1 chain
B3: Acm-JRL 2 (Anlec in TBS, Batch 2) (other)
chain: B1 chain
B4: HZI 2-06 (Anlec in dist. water; lectin batch isolated from bromelain) (other)
chain: B1 chain

Target: SARS-CoV-2 spike protein, extracellular domain (1-1213), recombinant from HEK293 cells (SARS-CoV-2, UniProt P0DTC2 14-1213)

Compared with B1, B2 is 1.7-fold lower in koff: 0.005 s⁻¹ for the first, 0.003 s⁻¹ for the second.

Going from B3 to B4, the koff rises from 0.003 s⁻¹ to 0.008 s⁻¹ (2.7-fold).

First: B1
Second: B2
The kon of the first is 2.2-fold lower: 133 M⁻¹ s⁻¹ for the first, 286 M⁻¹ s⁻¹ for the second.

B4 showed a kon of 359 M⁻¹ s⁻¹.
